# Test results reported in the supplement of paper PMC10126150.
# ± gives the standard deviation of the averaged measurements.
# Tested on: ATP
# Experiment: switch fluorescence ratio, 500 uM ATP over buffer (Cy3 cluster intensity, sum of 5 cycles each) (fold (ratio)); higher = stronger signal-on switching upon ATP binding; sequences stand for … in TCGTCGGCAGCGTCAGATGTGTATAAGAGACAGTTTTTTTTTTTTTTTTTTTTTTTTT…TC
# Settings: aptamer strand: ATP DNA aptamer (quencher-CACCTGGGGGAGTATTGCGGAGGAAGG + anchor), 100 nM annealed; ATP concentration: 500 uM
# How it was run: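 Clusters with intensities outside 100-1000 RFU were excluded. The remaining Cy3-labelled switching-strand clusters on a modified Illumina MiSeq flow-cell had been annealed to 100 nM quencher-labelled ATP aptamer and imaged in selection buffer, then after 15 min with 500 uM ATP at 22 °C, for five cycles separated by NaOH stripping and re-annealing. The fluorescence ratio, averaged per switch-domain sequence, is each cluster's summed target-cycle Cy3 intensity over its summed buffer-cycle Cy3 intensity.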
# 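Further: ATP exposure 15 min at 22 °C before imaging.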
row,Sequence,switch fluorescence ratio
1,GAAAGGGCTG,1.05 ± 0.087
2,CTTGGAATGT,1.01 ± 0.029
3,TTAAAGCTGT,1.02 ± 0.063
4,TTGTATGGAC,1.019 ± 0.0076
5,CCCCCGTTCC,1.72 ± 0.2
6,TACGTAGGTG,1.04 ± 0.031
7,TGACCGAAGT,1.043 ± 0.0028
8,AGGGAGCGAA,1.003 ± 0.0097
9,CATTTCGTAA,1.18 ± 0.02
10,GATTTAGTTA,1.01 ± 0.027
11,TGAGCCGGGT,1.02 ± 0.033
12,TTACATATCT,1.03 ± 0.0043
13,GATGTCATTT,0.987 ± 0.024
14,ATTTAGGTGG,1.02 ± 0.053
15,ACGGTGAACC,0.989 ± 0.06
16,TTTGTGGGTC,0.995 ± 0.043
17,TAAGTCCACC,1.012 ± 0.01
18,TGAGTGTTTT,0.997 ± 0.027
19,AAGGGTAGTT,0.997 ± 0.028
20,GGGGTTGTGA,1.01 ± 0.022
21,GGTCTGGGTG,1.08 ± 0.066
22,AGCTTTACGG,1.04 ± 0.019
23,TTTTGTATTG,0.98 ± 0.024

row,Sequence,switch fluorescence ratio
1,TCAGAGGTTT,0.973 ± 0.024
2,GATGGTCGTT,1.011 ± 0.0079
3,TCGTCAAATT,0.991 ± 0.067
4,ACGTTCCGAG,2.54 ± 0.32
5,ATCCCAGGGT,1.89 ± 0.076
6,TGTTGCGCTA,1.02 ± 0.029
7,TTTCTGCAGC,1.24 ± 0.14
8,GAGTGTACGT,1.01 ± 0.052
9,CCGTAACGGA,0.972 ± 0.012
10,CTTGTGAGGG,0.985 ± 0.037
11,GCTGGTTCTG,0.982 ± 0.054
12,TTCGTATTTC,1.06 ± 0.083
13,GCGCAGTACG,4.91 ± 0.71
14,GGTAGATCGG,1.004 ± 0.0061
15,TTCCGTCTTC,1.09 ± 0.11
16,CAGGCTGGTC,0.992 ± 0.053
17,GGCAATCGAA,1.1145 ± 0.00045
18,TGGGCTTTAG,0.967 ± 0.041
19,AATGGGGAAG,0.985 ± 0.018
20,TGCTTAACAT,1.01 ± 0.019
21,TTTATTTTCG,1.02 ± 0.037
22,GTTAGGGGGT,0.994 ± 0.027
23,GTCGAGGGGG,0.997 ± 0.05

row,Sequence,switch fluorescence ratio
1,AATCTCTGGG,0.992 ± 0.0015
2,CCTTGGGACG,0.992 ± 0.062
3,AACTGAGTTT,1.008 ± 0.0015
4,TCACGGGGGG,1.08 ± 0.1
5,TGATAATAGA,0.9953 ± 0.0011
6,TGGGATATCT,1 ± 0.023
7,GACGGGGCTA,1.01 ± 0.023
8,GGGGGCCGTT,0.977 ± 0.058
9,TGGCTGGAAG,0.988 ± 0.027
10,TTTGGATCAG,1.01 ± 0.02
11,CGTGGAGGGG,1.04 ± 0.013
12,CGCGCTTTTG,1.01 ± 0.017
13,GTTAGAGCCG,1.09 ± 0.062
14,GTGGGGTGGG,0.986 ± 0.029
15,ATTTATATCA,1.01 ± 0.024
16,TATGTATCCG,1.03 ± 0.062
17,AGGGTTTTGA,0.996 ± 0.054
18,GATTATAAGA,0.989 ± 0.033
19,TTAGGACTGG,0.992 ± 0.0054
20,TAATCTTTGG,0.961 ± 0.035
21,TCATTTTGGG,0.999 ± 0.028
22,GGGTGTAGTT,0.999 ± 0.036
23,GGATAGGTAT,1.02 ± 0.066

row,Sequence,switch fluorescence ratio
1,AGGGTCTACG,0.997 ± 0.044
2,TCGTGGGCGA,0.993 ± 0.011
3,CGTTAGTAAA,0.9862 ± 0.0035
4,AATCCTTAAT,1.007 ± 0.0051
5,TTACGGTAAT,1.143 ± 0.0043
6,ATTGCCCTTA,1.06 ± 0.071
7,TAGGTAGAGT,0.9899 ± 0.006
8,GCTACTTTTG,0.998 ± 0.027
9,AAGTAGATCC,1.04 ± 0.044
10,ACACGATGGG,1 ± 0.019
11,TTTTCACGTT,1.07 ± 0.095
12,TCGGGAAGGT,1 ± 0.023
13,GGCGGAAGAA,1.07 ± 0.013
14,TGGTATCGGC,0.992 ± 0.01
15,GATTTGCTAG,0.997 ± 0.023
16,CCAGTAGAGC,1.01 ± 0.034
17,GGTAATTGTG,0.987 ± 0.016
18,GAGAAAGGTT,1.09 ± 0.2
19,TGGGATTAGG,0.969 ± 0.03
20,AGTGGGGGGT,0.991 ± 0.03
21,GCGAGAGCTA,0.9602 ± 0.0021
22,TTCAATCCCG,0.991 ± 0.069
23,TCACCCGTTT,0.993 ± 0.016

row,Sequence,switch fluorescence ratio
1,TTATTATCAG,1.013 ± 0.0021
2,AAAGCTGTTT,1.02 ± 0.014
3,AATCTGGGGT,1 ± 0.028
4,TTTAAGACGG,0.98439 ± 0.00032
5,TAATGACTGT,1.02 ± 0.045
6,GGGTAAGGGA,0.961 ± 0.013
7,TTTGCGGGTT,1 ± 0.057
8,TATAAATGAA,0.9921 ± 0.0043
9,CCCAGGACGC,1.397 ± 0.0036
10,TCAAGAGGCG,1.019 ± 0.0029
11,GACGTCTGGC,1.14 ± 0.24
12,GCCGTTTTTT,0.97 ± 0.04
13,TCCAAGACGG,1.02 ± 0.046
14,GCTTTTTGTC,1.06 ± 0.013
15,GGGAAATATT,1.06 ± 0.14
16,CATGCTTTTG,1.013 ± 0.0021
17,GAGGGGGTCA,1.02 ± 0.029
18,ACACCGGTTA,1.01 ± 0.035
19,ATCAAGGGGG,0.992 ± 0.034
20,GGTTACACTG,1.03 ± 0.025
21,GATATTGTTT,0.988 ± 0.019
22,ACAACATCCT,1.08 ± 0.044
23,TAGGGGGAT,1.01 ± 0.011

row,Sequence,switch fluorescence ratio
1,ATACGAGGGC,1.01 ± 0.028
2,CCTGTGGACG,0.914 ± 0.048
3,AAAGGGAAGT,0.983 ± 0.048
4,AGTTTGGTCT,0.984 ± 0.034
5,GTGAATTTGT,1.09 ± 0.15
6,GCTGTAAGAA,1.01 ± 0.037
7,TTTTTGTAT,0.979 ± 0.015
8,TAGCGTGAGC,1.02 ± 0.04
9,GGAAAGGGGT,1.03 ± 0.082
10,ATTATAAAGC,1.03 ± 0.063
11,CGGGTTTAAG,0.9933 ± 0.0026
12,AACGGTCTGA,1.009 ± 0.0024
13,ATGTTTTTTT,0.9915 ± 0.0073
14,TGGCTTTTTG,0.9898 ± 0.0035
15,CTACTTAGGG,1.03 ± 0.036
16,TCTACGGGGT,1.46 ± 0.55
17,TCGCTTTACT,3.87 ± 0.81
18,TTATGGTTAG,1.008 ± 0.0092
19,AATGGATGGG,0.999 ± 0.011
20,ACTAGATTGA,1.01 ± 0.028
21,TAAGTATTGT,1.012 ± 0.0084
22,ATGGGTGAAG,0.9848 ± 0.0096
23,TTTATGGAGG,0.991 ± 0.02

row,Sequence,switch fluorescence ratio
1,TTGAGGTTCG,1.05 ± 0.14
2,GTCGATTGGG,1.001 ± 0.0012
3,ATTTACTGCG,1.01 ± 0.041
4,GGTTACAATT,0.982 ± 0.032
5,TTTCAAGAGT,1.03 ± 0.034
6,GTGTTAGTTA,1.01 ± 0.011
7,CTGCTAGCGG,1.02 ± 0.065
8,TAGGTGTCAT,1.15 ± 0.32
9,ATGTTGATCT,0.983 ± 0.024
10,GACGGGGAAT,0.979 ± 0.01
11,TCGCTTCTCT,1.76 ± 1
12,TTAGTGAGCG,1.03 ± 0.012
13,TTCTTCGTTA,1.03 ± 0.019
14,GGTGTATAAA,0.967 ± 0.054
15,CGGGAGATTA,0.9872 ± 0.0084
16,GAGGCGCATC,1 ± 0.026
17,TCCGGGGGCA,1.59 ± 0.027
18,TTTTGCCCGG,1.01 ± 0.033
19,AGTTAATTTC,0.989 ± 0.03
